Experimental data: US20140050727A1 (MOCHIDA PHARMACEUTICAL, published 2014)
Positions count from the first letter of the chain named. Names and notes keep the numbering of the source.

T1: human CD14 (human, UniProt P08571 20-375, limits assumed)
T1 sequence (looked up): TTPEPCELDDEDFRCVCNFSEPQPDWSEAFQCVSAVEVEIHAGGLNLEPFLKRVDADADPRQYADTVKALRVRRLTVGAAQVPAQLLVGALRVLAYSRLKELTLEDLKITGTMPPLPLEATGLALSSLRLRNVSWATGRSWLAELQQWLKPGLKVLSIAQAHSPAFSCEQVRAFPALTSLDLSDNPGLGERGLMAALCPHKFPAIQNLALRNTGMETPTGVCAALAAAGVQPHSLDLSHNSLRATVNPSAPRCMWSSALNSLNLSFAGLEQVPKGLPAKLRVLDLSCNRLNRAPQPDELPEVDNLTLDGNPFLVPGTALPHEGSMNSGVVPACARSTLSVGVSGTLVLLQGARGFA

T2: Elastase, Human Neutrophil (human, UniProt P08246 30-247, limits assumed)
T2 sequence (looked up): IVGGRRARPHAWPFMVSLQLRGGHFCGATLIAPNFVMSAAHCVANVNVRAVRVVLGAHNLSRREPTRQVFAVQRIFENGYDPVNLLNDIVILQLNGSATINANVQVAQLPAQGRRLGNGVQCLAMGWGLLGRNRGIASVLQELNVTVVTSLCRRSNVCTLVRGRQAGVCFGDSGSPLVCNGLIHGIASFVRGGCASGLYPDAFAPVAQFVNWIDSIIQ

B1: F1024S-D2(3) (antibody)
heavy: QIQLVQSGPELKKPGESVKISCKASGYTFTDYAMNWVKQAPGNGLKWMGWINTQTGKPTYADDFKQRFVFSLETSASTAYLQINNLNIEDTATYFCTRSTFYYSSYIYGWYFDFWGPGTMVTVSSASTKGPSVFPLAPCSRSTSESTAALGCLVKDYFPEPVTVSWNSGALTSGVHTFPAVLQSSGLYSLSSVVTVPSSSLGTKTYTCNVDHKPSNTKVDKRVESKYGPPGPSGPAPEFLGGPSVFLFPPKPKDTLMISRTPEVTCVVVDVSQEDPEVQFNWYVDGVEVHNAKTKPREEQFNSTYRVVSVLTVLHQDWLNGKEYKCKVSNKGLPSSIEKTISKAKGQPREPQVYTLPPSQEEMTKNQVSLTCLVKGFYPSDIAVEWESNGQPENNYKTTPPVLDSDGSFFLYSRLTVDKSRWQEGNVFSCSVMHEALHNHYTQKSLSLSLGKGSTVAACNLPIVSGPCRAFIKLWAFDAVKGKCVLFPYGGCQGNGNKFDSEKECREYCGVPGDGDEELLRFSN
light: DIVMTQSPTSISISVGERVTMNCKASQNVGSNVDWYQQKTGQSPKLLIYKASNRYTGVPDRFTGSGSGTDFTFTISNMQAVDLAVYYCMQSNTNPPWTFGGGTKLELKRTVAAPSVFIFPPSDEQLKSGTASVVCLLNNFYPREAKVQWKVDNALQSGNSQESVTEQDSKDSTYSLSSTLTLSKADYEKHKVYACEVTHQGLSSPVTKSFNRGEC
B2: F1024S-SLPI(D2) with modified linker GSGGGGSGGGGSGGGGS (antibody)
heavy: QIQLVQSGPELKKPGESVKISCKASGYTFTDYAMNWVKQAPGNGLKWMGWINTQTGKPTYADDFKQRFVFSLETSASTAYLQINNLNIEDTATYFCTRSTFYYSSYIYGWYFDFWGPGTMVTVSSASTKGPSVFPLAPCSRSTSESTAALGCLVKDYFPEPVTVSWNSGALTSGVHTFPAVLQSSGLYSLSSVVTVPSSSLGTKTYTCNVDHKPSNTKVDKRVESKYGPPGPSGPAPEFLGGPSVFLFPPKPKDTLMISRTPEVTCVVVDVSQEDPEVQFNWYVDGVEVHNAKTKPREEQFNSTYRVVSVLTVLHQDWLNGKEYKCKVSNKGLPSSIEKTISKAKGQPREPQVYTLPPSQEEMTKNQVSLTCLVKGFYPSDIAVEWESNGQPENNYKTTPPVLDSDGSFFLYSRLTVDKSRWQEGNVFSCSVMHEALHNHYTQKSLSLSLGKGSGGGGSGGGGSGGGGSRRKPGKCPVTYGQCLMLNPPNFCEMDGQCKRDLKCCMGMCGKSCVSPVKA
light: B1 light
B3: F1024S-SLPI(D2) (antibody)
heavy: QIQLVQSGPELKKPGESVKISCKASGYTFTDYAMNWVKQAPGNGLKWMGWINTQTGKPTYADDFKQRFVFSLETSASTAYLQINNLNIEDTATYFCTRSTFYYSSYIYGWYFDFWGPGTMVTVSSASTKGPSVFPLAPCSRSTSESTAALGCLVKDYFPEPVTVSWNSGALTSGVHTFPAVLQSSGLYSLSSVVTVPSSSLGTKTYTCNVDHKPSNTKVDKRVESKYGPPGPSGPAPEFLGGPSVFLFPPKPKDTLMISRTPEVTCVVVDVSQEDPEVQFNWYVDGVEVHNAKTKPREEQFNSTYRVVSVLTVLHQDWLNGKEYKCKVSNKGLPSSIEKTISKAKGQPREPQVYTLPPSQEEMTKNQVSLTCLVKGFYPSDIAVEWESNGQPENNYKTTPPVLDSDGSFFLYSRLTVDKSRWQEGNVFSCSVMHEALHNHYTQKSLSLSLGKGSRRKPGKCPVTYGQCLMLNPPNFCEMDGQCKRDLKCCMGMCGKSCVSPVKA
light: B1 light
B4: F1024S-SLPI(D1D2) (antibody)
heavy: QIQLVQSGPELKKPGESVKISCKASGYTFTDYAMNWVKQAPGNGLKWMGWINTQTGKPTYADDFKQRFVFSLETSASTAYLQINNLNIEDTATYFCTRSTFYYSSYIYGWYFDFWGPGTMVTVSSASTKGPSVFPLAPCSRSTSESTAALGCLVKDYFPEPVTVSWNSGALTSGVHTFPAVLQSSGLYSLSSVVTVPSSSLGTKTYTCNVDHKPSNTKVDKRVESKYGPPGPSGPAPEFLGGPSVFLFPPKPKDTLMISRTPEVTCVVVDVSQEDPEVQFNWYVDGVEVHNAKTKPREEQFNSTYRVVSVLTVLHQDWLNGKEYKCKVSNKGLPSSIEKTISKAKGQPREPQVYTLPPSQEEMTKNQVSLTCLVKGFYPSDIAVEWESNGQPENNYKTTPPVLDSDGSFFLYSRLTVDKSRWQEGNVFSCSVMHEALHNHYTQKSLSLSLGKGSGKSFKAGVCPPKKSAQCLRYKKPECQSDWQCPGKKRCCPDTCGIKCLDPVDTPNPTRRKPGKCPVTYGQCLMLNPPNFCEMDGQCKRDLKCCMGMCGKSCVSPVKA
light: B1 light
B5: modified F1024S-D2(R11S/R15T/Q19K/Y46D) (antibody)
heavy: B1 heavy with R469T
light: B1 light

target: T1, human CD14; test: cell-based or functional assay

With B1 the “IC50 for inhibition of LPS-induced E-Selectin expression in HUVEC” value was 0.43 µg/mL.

In the case of B1, the “IC50 for inhibition of LPS-induced IL-6 production in HUVEC” value is reported as 0.38 µg/mL.

B1 was tested, and the “IC50 for inhibition of LPS-induced TNF-α production in human peripheral blood mononuclear cells” value was 0.58 µg/mL.

In the case of B1, the “IC50 for inhibition of LPS-induced procoagulant activity (PCA) in human peripheral blood mononuclear cells” value is reported as 20.9 µg/mL.

target: Human Factor Xa (human, UniProt P00742 41-488, limits assumed); test: cell-based or functional assay
Sequence (P00742 41-488 limits assumed): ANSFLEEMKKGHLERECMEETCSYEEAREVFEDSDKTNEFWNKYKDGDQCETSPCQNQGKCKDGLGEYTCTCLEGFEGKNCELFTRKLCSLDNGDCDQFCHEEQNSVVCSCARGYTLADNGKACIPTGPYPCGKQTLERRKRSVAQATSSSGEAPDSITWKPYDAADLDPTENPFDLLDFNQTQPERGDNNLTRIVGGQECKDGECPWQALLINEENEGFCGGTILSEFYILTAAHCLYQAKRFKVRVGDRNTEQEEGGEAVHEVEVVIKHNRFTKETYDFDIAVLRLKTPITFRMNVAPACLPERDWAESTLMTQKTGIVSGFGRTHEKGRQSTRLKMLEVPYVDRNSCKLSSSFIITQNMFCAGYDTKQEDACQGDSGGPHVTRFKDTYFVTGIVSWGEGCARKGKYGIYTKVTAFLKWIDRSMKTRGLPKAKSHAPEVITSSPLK

First: AACNLPIVRGPCRAFIRLWAFDAVKGKCVLFPYGGCQGNGNKFYSEK (other) [polypeptide Q19R]
Second: AACNLPIVRGPCRAFIRLWAFDAVKGKCVLFPYGGCQGNGNKFESEK (other) [polypeptide Q19R/Y46E]
The FXa-inhibiting activity of the first is lower: ~6 times that of polypeptide AN68 for the first, ~10 times that of polypeptide AN68 for the second.

Going from AACNLPIVEGPCRAFIQLWAFDAVKGKCVLFPYGGCQGNGNKFESEK (other) [polypeptide R11E/Y46E] to AACNLPIVRGPCRAFIKLWAFDAVKGKCVLFPYGGCQGNGNKFESEK (other) [polypeptide Q19K/Y46E], the FXa-inhibiting activity rises from ~3 times that of polypeptide AN68 to ~10 times that of polypeptide AN68.

Compared with AVLPQEEEGSGMAACNLPIVRGPCRAFIKLWAFDAVKGKCVLFPYGG (other) [polypeptide Q19K/Y46D], AVLPQEEEGSGMAACNLPIVLGPCRAFIKLWAFDAVKGKCVLFPYGG (other) [polypeptide R11L/Q19K/Y46D] is lower in FXa-inhibiting activity: ~20 times that of polypeptide AN68 for the first, ~16 times that of polypeptide AN68 for the second.

Going from AVLPQEEEGSGMAACNLPIVQGPCRAFIKLWAFDAVKGKCVLFPYGG (other) [polypeptide R11Q/Q19K/Y46D] to AVLPQEEEGSGMAACNLPIVDGPCRAFIKLWAFDAVKGKCVLFPYGG (other) [polypeptide R11D/Q19K/Y46D], the FXa-inhibiting activity falls from ~20 times that of polypeptide AN68 to ~5 times that of polypeptide AN68.

First: AVLPQEEEGSGMAACNLPIVEGPCRAFIKLWAFDAVKGKCVLFPYGG (other) [polypeptide R11E/Q19K/Y46E]
Second: AVLPQEEEGSGMAACNLPIVRGPCRAFIRLWAFDAVKGKCVLFPYGG (other) [polypeptide Q19R/Y46D]
The FXa-inhibiting activity of the first is lower: ~13 times that of polypeptide AN68 for the first, ~18 times that of polypeptide AN68 for the second.

target: T2, Elastase, Human Neutrophil; test: cell-based or functional assay

B2 and B1 are within 1.5-fold of each other in “50% inhibitory concentration (elastase inhibitory activity)” value (“50% inhibitory concentration” below): 11.6 µg/mL for the first, 8.9 µg/mL for the second.

B3 and B4 are within 1.5-fold of each other in “50% inhibitory concentration” value: 26.9 µg/mL for the first, 22.5 µg/mL for the second.

In the case of B5, the “50% inhibitory concentration” value is reported as 4.43 µg/mL.
